For experiment [1], the target named is T1, cynomolgus monkey FcγRIIIaS extracellular domain with C-terminal His-tag (cynomolgus monkey, UniProt A3RFZ7 21-206 (rhesus entry)).
T1 construct: also called cyno FcgRIIIaS; cynoFcγRIIIaS; not shown: His-tag added to the C-terminus
In words: SPR (BIACORE), antibody captured, FcgR analyte.

For experiment [2], the target named is T1, cynomolgus monkey FcγRIIIaS …. In words: SPR (BIACORE); KD of SG1 / KD of variant. The procedure: The kinetic analysis of interactions between these antibodies and FcγR was carried out using BIACORE® T200 or BIACORE® 4000 (GE Healthcare). HBS-EP+ (GE Healthcare) was used as the running buffer, and the measurement temperature was set to 25° C. […] After the measurement, the antibody captured on the chip was washed off by allowing reaction with 10 mM glycine-HCl, pH1.5 and 25 mM NaOH so that the chip was regenerated and used repeatedly. The sensorgrams obtained as measurement results were analyzed by the 1:1 Langmuir binding model using the BIACORE® Evaluation Software to calculate the binding rate constant ka (L/mol/s) and dissociation rate constant kd (1/s), and the dissociation constant KD (mol/L) was calculated from these values. […] Regarding such interactions, KD values were calculated using the following 1:1 binding model described in BIACORE® T100 Software Handbook BR1006-48 Edition AE.

The target of experiment [3] is T2, cynomolgus monkey FcγRIIIaS extracellular domain with C-terminal His-tag (cynomolgus monkey, UniProt Q8SPW2 21-206 at identity 1.00)).
T2 construct: also called cyno FcgRIIIaS; cynoFcγRIIIaS
T2 chain: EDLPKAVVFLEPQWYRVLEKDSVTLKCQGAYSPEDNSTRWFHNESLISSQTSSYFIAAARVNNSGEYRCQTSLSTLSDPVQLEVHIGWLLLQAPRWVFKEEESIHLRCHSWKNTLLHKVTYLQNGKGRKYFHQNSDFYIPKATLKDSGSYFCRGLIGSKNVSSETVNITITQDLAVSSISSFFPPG
Put plainly: SPR, KD(parent SG1)/KD(variant).

Data on 4 molecules can be found in US20250076311A1 (Chugai, published 2025).

B1: M103205H795-MY001/M103202L889-SK1 (antibody, human IgG1, kappa, name in EU numbering)
heavy: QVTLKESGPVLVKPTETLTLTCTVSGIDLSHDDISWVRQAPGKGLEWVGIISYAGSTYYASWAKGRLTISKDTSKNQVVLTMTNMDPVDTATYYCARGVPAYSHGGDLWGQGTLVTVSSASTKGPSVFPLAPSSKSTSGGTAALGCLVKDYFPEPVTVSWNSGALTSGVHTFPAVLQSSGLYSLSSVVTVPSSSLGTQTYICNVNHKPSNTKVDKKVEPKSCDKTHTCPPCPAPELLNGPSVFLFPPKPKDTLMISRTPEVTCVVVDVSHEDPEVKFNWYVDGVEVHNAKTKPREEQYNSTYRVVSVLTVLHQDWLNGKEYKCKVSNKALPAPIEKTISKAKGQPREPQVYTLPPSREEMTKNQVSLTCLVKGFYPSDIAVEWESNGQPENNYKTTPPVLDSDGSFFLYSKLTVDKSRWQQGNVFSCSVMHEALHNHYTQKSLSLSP
light: DIVMTQSPATLSLSPGERATLSCTSSQSVYHANWLSWFQQKPGQPPKLLIYWASTLAYGVPSRFSGSGSGTDFTLTISSLQPEDAATYYCAGGYGGGRYAFGQGTKVEIKRTVAAPSVFIFPPSDEQLKSGTASVVCLLNNFYPREAKVQWKVDNALQSGNSQESVTEQDSKDSTYSLSSTLTLSKADYEKHKVYACEVTHQGLSSPVTKSFNRGEC
notes: Fc variant of MS1032LO06-SG1; positions in EU numbering
B1 registered a Kd in experiment [1] of 32 µM. Moreover, the “KD fold (SG1 = 1)” value in experiment [2] came out at 0.05 fold.

B2: MS1032LO19-SG1 (antibody, human IgG1, kappa)
heavy: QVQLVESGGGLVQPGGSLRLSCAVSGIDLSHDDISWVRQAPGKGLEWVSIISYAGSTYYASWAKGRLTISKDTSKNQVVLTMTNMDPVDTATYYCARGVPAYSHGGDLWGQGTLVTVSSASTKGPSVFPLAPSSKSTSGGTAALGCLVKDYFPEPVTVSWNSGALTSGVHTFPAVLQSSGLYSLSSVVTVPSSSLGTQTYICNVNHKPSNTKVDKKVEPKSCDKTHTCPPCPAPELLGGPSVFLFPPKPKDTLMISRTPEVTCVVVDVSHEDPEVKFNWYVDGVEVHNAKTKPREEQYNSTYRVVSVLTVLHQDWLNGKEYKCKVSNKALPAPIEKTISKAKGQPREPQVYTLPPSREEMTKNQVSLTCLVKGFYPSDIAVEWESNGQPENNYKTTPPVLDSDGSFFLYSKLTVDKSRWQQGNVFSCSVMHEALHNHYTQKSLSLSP
light: DIVMTQSPATLSLSPGERATLSCTTSQSVYHENWLSWFQQKPGQPPKLLIYWASTLAYGVPSRFSGSGSGTDFTLTISSLQPEDAATYYCAGGYGGGRYAFGQGTKVEIKRTVAAPSVFIFPPSDEQLKSGTASVVCLLNNFYPREAKVQWKVDNALQSGNSQESVTEQDSKDSTYSLSSTLTLSKADYEKHKVYACEVTHQGLSSPVTKSFNRGEC
notes: tied to rows r13/r31 by row order only; also called MS103240H795-SG1; copies: 2 + 2
Regarding B2, the “KD fold (SG1 = 1)” value in experiment [3] was 1 fold.

B3: MS1032LO19-SG1081 (antibody, name in EU numbering)
heavy: QVQLVESGGGLVQPGGSLRLSCAVSGIDLSHDDISWVRQAPGKGLEWVSIISYAGSTYYASWAKGRLTISKDTSKNQVVLTMTNMDPVDTATYYCARGVPAYSHGGDLWGQGTLVTVSSASTKGPSVFPLAPSSKSTSGGTAALGCLVKDYFPEPVTVSWNSGALTSGVHTFPAVLQSSGLYSLSSVVTVPSSSLGTQTYICNVNHKPSNTKVDKKVEPKSCDKTHTCPPCPAPELWNGPSVFLFPPKPKDTLMISRTPEVTCVVVDVSDEDPEVKFNWYVDGVEVHNAKTKPREELYNSTYRVVSVLTVLHRDWLNGKEYKCKVSNTALPKPIEKTISKAKGQRREPQVYTLPPSREEMTKNQVSLTCLVKGFYPSDIAVEWESNGQPENNYKTTPPVLDSDGSFFLYSKLTVDKSRWQQGNVFSCSVMHEALHAHYTRKELSLSP
light: DIVMTQSPATLSLSPGERATLSCTTSQSVYHENWLSWFQQKPGQPPKLLIYWASTLAYGVPSRFSGSGSGTDFTLTISSLQPEDAATYYCAGGYGGGRYAFGQGTKVEIKRTVAAPSVFIFPPSDEQLKSGTASVVCLLNNFYPREAKVQWKVDNALQSGNSQESVTEQDSKDSTYSLSSTLTLSKADYEKHKVYACEVTHQGLSSPVTKSFNRGEC
notes: tied to rows r19/r37 by row order only; also called MS103240H795-SG1081
Consider B3, for which the “KD fold (SG1 = 1)” value in experiment [3] is 0.09 fold.

B4: MS1032LO19-SG1077 (antibody, name in EU numbering)
heavy: QVQLVESGGGLVQPGGSLRLSCAVSGIDLSHDDISWVRQAPGKGLEWVSIISYAGSTYYASWAKGRLTISKDTSKNQVVLTMTNMDPVDTATYYCARGVPAYSHGGDLWGQGTLVTVSSASTKGPSVFPLAPSSKSTSGGTAALGCLVKDYFPEPVTVSWNSGALTSGVHTFPAVLQSSGLYSLSSVVTVPSSSLGTQTYICNVNHKPSNTKVDKKVEPKSCDKTHTCPPCPAPELWNGPSVFLFPPKPKDTLMISRTPEVTCVVVDVSDEDPEVKFNWYVDGVEVHNAKTKPREELYNSTYRVVSVLTVLHRDWLNGKEYKCKVSNTALPKPIEKTISKAKGQRREPQVYTLPPSREEMTKNQVSLTCLVKGFYPSDIAVEWESNGQPENNYKTTPPVLDSDGSFFLYSKLTVDKSRWQQGNVFSCSVLHEALHAHTTRKELSLSP
light: DIVMTQSPATLSLSPGERATLSCTTSQSVYHENWLSWFQQKPGQPPKLLIYWASTLAYGVPSRFSGSGSGTDFTLTISSLQPEDAATYYCAGGYGGGRYAFGQGTKVEIKRTVAAPSVFIFPPSDEQLKSGTASVVCLLNNFYPREAKVQWKVDNALQSGNSQESVTEQDSKDSTYSLSSTLTLSKADYEKHKVYACEVTHQGLSSPVTKSFNRGEC
notes: tied to rows r16/r34 by row order only; also called MS103240H795-SG1077
As to B4, in experiment [3], the “KD fold (SG1 = 1)” value turned out to be 0.09 fold.
